Data from ChEMBL document CHEMBL1156468, “Crystal structures of Saccharomyces cerevisiae N-myristoyltransferase with bound myristoyl-CoA and inhibitors reveal the functional roles of the N-terminal region” (J Biol Chem, 2007).

Key:
[1] = substrate: CC(C)C[C@H](NC(=O)CN)C(=O)N[C@@H](Cc1ccccc1)C(=O)N[C@@H](C)C(=O)N[C@@H](CO)C(=O)N[C@@H](CCCCN)C(=O)N[C@@H](CC(C)C)C(=O)N[C@@H](Cc1ccccc1)C(=O)O; test: Activity of Saccharomyces cerevisiae NMT D23A mutant assessed as production of coenzyme A after 1 hr
[2] = substrate: CC(C)C[C@H](NC(=O)CN)C(=O)N[C@@H](Cc1ccccc1)C(=O)N[C@@H](C)C(=O)N[C@@H](CO)C(=O)N[C@@H](CCCCN)C(=O)N[C@@H](CC(C)C)C(=O)N[C@@H](Cc1ccccc1)C(=O)O; test: Ratio of kcat to Km for Saccharomyces cerevisiae NMT D23A mutant
[3] = substrate: CC(C)C[C@H](NC(=O)CN)C(=O)N[C@@H](Cc1ccccc1)C(=O)N[C@@H](C)C(=O)N[C@@H](CO)C(=O)N[C@@H](CCCCN)C(=O)N[C@@H](CC(C)C)C(=O)N[C@@H](Cc1ccccc1)C(=O)O; test: Ratio of kcat to Km for Saccharomyces cerevisiae NMT D22K mutant
[4] = substrate: CC(C)C[C@H](NC(=O)CN)C(=O)N[C@@H](Cc1ccccc1)C(=O)N[C@@H](C)C(=O)N[C@@H](CO)C(=O)N[C@@H](CCCCN)C(=O)N[C@@H](CC(C)C)C(=O)N[C@@H](Cc1ccccc1)C(=O)O; test: Activity of Saccharomyces cerevisiae NMT D22K mutant assessed as production of coenzyme A after 1 hr
[5] = substrate: CC(C)C[C@H](NC(=O)CN)C(=O)N[C@@H](Cc1ccccc1)C(=O)N[C@@H](C)C(=O)N[C@@H](CO)C(=O)N[C@@H](CCCCN)C(=O)N[C@@H](CC(C)C)C(=O)N[C@@H](Cc1ccccc1)C(=O)O; test: Ratio of kcat to Km for Saccharomyces cerevisiae NMT D22A mutant
[6] = substrate: CC(C)C[C@H](NC(=O)CN)C(=O)N[C@@H](Cc1ccccc1)C(=O)N[C@@H](C)C(=O)N[C@@H](CO)C(=O)N[C@@H](CCCCN)C(=O)N[C@@H](CC(C)C)C(=O)N[C@@H](Cc1ccccc1)C(=O)O; test: Activity of Saccharomyces cerevisiae NMT D22A mutant assessed as production of coenzyme A after 1 hr
[7] = substrate: CC(C)C[C@H](NC(=O)CN)C(=O)N[C@@H](Cc1ccccc1)C(=O)N[C@@H](C)C(=O)N[C@@H](CO)C(=O)N[C@@H](CCCCN)C(=O)N[C@@H](CC(C)C)C(=O)N[C@@H](Cc1ccccc1)C(=O)O; test: Ratio of kcat to Km for Saccharomyces cerevisiae NMT D23K mutant
[8] = substrate: CC(C)C[C@H](NC(=O)CN)C(=O)N[C@@H](Cc1ccccc1)C(=O)N[C@@H](C)C(=O)N[C@@H](CO)C(=O)N[C@@H](CCCCN)C(=O)N[C@@H](CC(C)C)C(=O)N[C@@H](Cc1ccccc1)C(=O)O; test: Activity of Saccharomyces cerevisiae NMT D23K mutant assessed as production of coenzyme A after 1 hr
[9] = substrate: CC(C)C[C@H](NC(=O)CN)C(=O)N[C@@H](Cc1ccccc1)C(=O)N[C@@H](C)C(=O)N[C@@H](CO)C(=O)N[C@@H](CCCCN)C(=O)N[C@@H](CC(C)C)C(=O)N[C@@H](Cc1ccccc1)C(=O)O; test: Activity of Saccharomyces cerevisiae NMT D108A mutant assessed as production of coenzyme A after 1 hr
[10] = substrate: CC(C)C[C@H](NC(=O)CN)C(=O)N[C@@H](Cc1ccccc1)C(=O)N[C@@H](C)C(=O)N[C@@H](CO)C(=O)N[C@@H](CCCCN)C(=O)N[C@@H](CC(C)C)C(=O)N[C@@H](Cc1ccccc1)C(=O)O; test: Ratio of kcat to Km for Saccharomyces cerevisiae NMT D108A mutant
[11] = substrate: CC(C)C[C@H](NC(=O)CN)C(=O)N[C@@H](Cc1ccccc1)C(=O)N[C@@H](C)C(=O)N[C@@H](CO)C(=O)N[C@@H](CCCCN)C(=O)N[C@@H](CC(C)C)C(=O)N[C@@H](Cc1ccccc1)C(=O)O; test: Activity of Saccharomyces cerevisiae NMT T24D mutant assessed as production of coenzyme A after 1 hr
[12] = substrate: CC(C)C[C@H](NC(=O)CN)C(=O)N[C@@H](Cc1ccccc1)C(=O)N[C@@H](C)C(=O)N[C@@H](CO)C(=O)N[C@@H](CCCCN)C(=O)N[C@@H](CC(C)C)C(=O)N[C@@H](Cc1ccccc1)C(=O)O; test: Ratio of kcat to Km for Saccharomyces cerevisiae NMT T24D mutant

B1: Glycylpeptide N-tetradecanoyltransferase (Saccharomyces cerevisiae S288c), P14743 D23A (protein)
chain: MSEEDKAKKLENLLKLLQLNNDATSKFTQEQKKAMKDHKFWRTQPVKDFDEKVVEEGPIDKPKTPEDISDKPLPLLSSFEWCSIDVDNKKQLEDVFVLLNENYVEDRDAGFRFNYTKEFFNWALKSPGWKKDWHIGVRVKETQKLVAFISAIPVTLGVRGKQVPSVEINFLCVHKQLRSKRLTPVLIKEITRRVNKCDIWHALYTAGIVLPAPVSTCRYTHRPLNWKKLYEVDFTGLPDGHTEEDMIAENALPAKTKTAGLRKLKKEDIDQVFELFKRYQSRFELIQIFTKEEFEHNFIGEESLPLDKQVIFSYVVEQPDGKITDFFSFYSLPFTILNNTKYKDLGIGYLYYYATDADFQFKDRFDPKATKALKTRLCELIYDACILAKNANMDVFNALTSQDNTLFLDDLKFGPGDGFLNFYLFNYRAKPITGGLNPDNSNDIKRRSNVGVVML
In the case of B1, the Km [1] is reported as 21.4 µM, the kcat [1] is reported as 2.71 s⁻¹ and the kcat/Km [2] is reported as 1.27 ×10⁵ /M/s.

B2: Glycylpeptide N-tetradecanoyltransferase (Saccharomyces cerevisiae S288c), P14743 D22K (protein)
chain: MSEEDKAKKLENLLKLLQLNNKDTSKFTQEQKKAMKDHKFWRTQPVKDFDEKVVEEGPIDKPKTPEDISDKPLPLLSSFEWCSIDVDNKKQLEDVFVLLNENYVEDRDAGFRFNYTKEFFNWALKSPGWKKDWHIGVRVKETQKLVAFISAIPVTLGVRGKQVPSVEINFLCVHKQLRSKRLTPVLIKEITRRVNKCDIWHALYTAGIVLPAPVSTCRYTHRPLNWKKLYEVDFTGLPDGHTEEDMIAENALPAKTKTAGLRKLKKEDIDQVFELFKRYQSRFELIQIFTKEEFEHNFIGEESLPLDKQVIFSYVVEQPDGKITDFFSFYSLPFTILNNTKYKDLGIGYLYYYATDADFQFKDRFDPKATKALKTRLCELIYDACILAKNANMDVFNALTSQDNTLFLDDLKFGPGDGFLNFYLFNYRAKPITGGLNPDNSNDIKRRSNVGVVML
In the case of B2, the kcat/Km [3] is reported as 1.05 ×10⁵ /M/s, the Km [4] is reported as 23.8 µM and the kcat [4] is reported as 2.5 s⁻¹.

B3: Glycylpeptide N-tetradecanoyltransferase (Saccharomyces cerevisiae S288c), P14743 D22A (protein)
chain: MSEEDKAKKLENLLKLLQLNNADTSKFTQEQKKAMKDHKFWRTQPVKDFDEKVVEEGPIDKPKTPEDISDKPLPLLSSFEWCSIDVDNKKQLEDVFVLLNENYVEDRDAGFRFNYTKEFFNWALKSPGWKKDWHIGVRVKETQKLVAFISAIPVTLGVRGKQVPSVEINFLCVHKQLRSKRLTPVLIKEITRRVNKCDIWHALYTAGIVLPAPVSTCRYTHRPLNWKKLYEVDFTGLPDGHTEEDMIAENALPAKTKTAGLRKLKKEDIDQVFELFKRYQSRFELIQIFTKEEFEHNFIGEESLPLDKQVIFSYVVEQPDGKITDFFSFYSLPFTILNNTKYKDLGIGYLYYYATDADFQFKDRFDPKATKALKTRLCELIYDACILAKNANMDVFNALTSQDNTLFLDDLKFGPGDGFLNFYLFNYRAKPITGGLNPDNSNDIKRRSNVGVVML
Work on B3 yielded a kcat/Km [5] of 9.03 ×10⁴ /M/s, a Km [6] of 19 µM and a kcat [6] of 1.72 s⁻¹.

B4: Glycylpeptide N-tetradecanoyltransferase (Saccharomyces cerevisiae S288c), P14743 D23K (protein)
chain: MSEEDKAKKLENLLKLLQLNNDKTSKFTQEQKKAMKDHKFWRTQPVKDFDEKVVEEGPIDKPKTPEDISDKPLPLLSSFEWCSIDVDNKKQLEDVFVLLNENYVEDRDAGFRFNYTKEFFNWALKSPGWKKDWHIGVRVKETQKLVAFISAIPVTLGVRGKQVPSVEINFLCVHKQLRSKRLTPVLIKEITRRVNKCDIWHALYTAGIVLPAPVSTCRYTHRPLNWKKLYEVDFTGLPDGHTEEDMIAENALPAKTKTAGLRKLKKEDIDQVFELFKRYQSRFELIQIFTKEEFEHNFIGEESLPLDKQVIFSYVVEQPDGKITDFFSFYSLPFTILNNTKYKDLGIGYLYYYATDADFQFKDRFDPKATKALKTRLCELIYDACILAKNANMDVFNALTSQDNTLFLDDLKFGPGDGFLNFYLFNYRAKPITGGLNPDNSNDIKRRSNVGVVML
For B4, the kcat/Km [7] was 7.26 ×10⁴ /M/s, the Km [8] was 50.2 µM and the kcat [8] was 3.64 s⁻¹.

B5: Glycylpeptide N-tetradecanoyltransferase (Saccharomyces cerevisiae S288c), P14743 D108A (protein)
chain: MSEEDKAKKLENLLKLLQLNNDDTSKFTQEQKKAMKDHKFWRTQPVKDFDEKVVEEGPIDKPKTPEDISDKPLPLLSSFEWCSIDVDNKKQLEDVFVLLNENYVEDRAAGFRFNYTKEFFNWALKSPGWKKDWHIGVRVKETQKLVAFISAIPVTLGVRGKQVPSVEINFLCVHKQLRSKRLTPVLIKEITRRVNKCDIWHALYTAGIVLPAPVSTCRYTHRPLNWKKLYEVDFTGLPDGHTEEDMIAENALPAKTKTAGLRKLKKEDIDQVFELFKRYQSRFELIQIFTKEEFEHNFIGEESLPLDKQVIFSYVVEQPDGKITDFFSFYSLPFTILNNTKYKDLGIGYLYYYATDADFQFKDRFDPKATKALKTRLCELIYDACILAKNANMDVFNALTSQDNTLFLDDLKFGPGDGFLNFYLFNYRAKPITGGLNPDNSNDIKRRSNVGVVML
B5 was tested, and the Km [9] was 7.89 µM, the kcat [9] was 1.94 s⁻¹ and the kcat/Km [10] was 2.45 ×10⁵ /M/s.

B6: Glycylpeptide N-tetradecanoyltransferase (Saccharomyces cerevisiae S288c), P14743 T24D (protein)
chain: MSEEDKAKKLENLLKLLQLNNDDDSKFTQEQKKAMKDHKFWRTQPVKDFDEKVVEEGPIDKPKTPEDISDKPLPLLSSFEWCSIDVDNKKQLEDVFVLLNENYVEDRDAGFRFNYTKEFFNWALKSPGWKKDWHIGVRVKETQKLVAFISAIPVTLGVRGKQVPSVEINFLCVHKQLRSKRLTPVLIKEITRRVNKCDIWHALYTAGIVLPAPVSTCRYTHRPLNWKKLYEVDFTGLPDGHTEEDMIAENALPAKTKTAGLRKLKKEDIDQVFELFKRYQSRFELIQIFTKEEFEHNFIGEESLPLDKQVIFSYVVEQPDGKITDFFSFYSLPFTILNNTKYKDLGIGYLYYYATDADFQFKDRFDPKATKALKTRLCELIYDACILAKNANMDVFNALTSQDNTLFLDDLKFGPGDGFLNFYLFNYRAKPITGGLNPDNSNDIKRRSNVGVVML
B6 gave a Km [11] of 41.6 µM, a kcat [11] of 2.77 s⁻¹ and a kcat/Km [12] of 6.67 ×10⁴ /M/s.
